Biological target: F-actin (filamentous actin), actin purified from chicken breast (Gallus gallus) (chicken (Gallus gallus)), P68139
Assay: co-sedimentation
Conditions: remark: other sources report otherwise

Kd: 1800 nM
B1: Human UTRN-ABD (utrophin actin-binding domain, amino acids 1-261), wild type, P46939 1-261 (domain or fragment)
chain: MAKYGEHEASPDNGQNEFSDIIKSRSDEHNDVQKKTFTKWINARFSKSGKPPINDMFTDLKDGRKLLDLLEGLTGTSLPKERGSTRVHALNNVNRVLQVLHQNNVELVNIGGTDIVDGNHKLTLGLLWSIILHWQVKDVMKDVMSDLQQTNSEKILLSWVRQTTRPYSQVNVLNFTTSWTDGLAFNAVLHRHKPDLFSWDKVVKMSPIERLEHAFSKAQTYLGIEKLLDPEDVAVQLPDKKSIIMYLTSLFEVLPQQVTID
